The DeepSol protein solubility set

Assay: soluble on expression in E. coli; label from the status in PepcDB or PDB records

Sequence	soluble on expression in E. coli
MTEFDNLTWLHGKPQGSGLLKANPEDFVVVEDLGFTPDGEGEHILLRILKNGCNTRFVADALAKFLKIHAREVSFAGQKDKHAVTEQWLCARVPGKEMPDFSAFQLEGCKVLEYARHKRKLRLGALKGNAFTLVLREISDRRDVETRLQAIRDGGVPNYFGAQRFGIGGSNLQGALRWAQSNAPVRDRNKRSFWLSAARSALFNQIVHQRLKKPDFNQVVDGDALQLAGRGSWFVATSEELPELQRRVDEKELMITASLPGSGEWGTQRAALAFEQDAIAQETVLQSLLLREKVEASRRAMLLYPQQLSWNWWDDVTVELRFWLPAGSFATSVVRELINTMGDYAHIAE	not soluble
MSLCGIAGTLNSSCFSSKKLLAALAHRGPSGHGEFSHQGVNLFHARLSIQDLSPAGAQPMHRHHLSIVFNGEIYNHLELRAKVADYPFSTRSDTETILALFERFGERSLEWMDGMFALAILDQRTHKLFLARDRMGKKPLFYYQEGEEFLFASELNALLTLKPLQIDHAKLSAFLRCGFFPHDGAPYQGVQSLPQGSYAFIDLHHPRPLSPQRYFDLLSLYQAPKIEGFEASKEAVELALKESVKNRLESSDLEVGSFLSGGIDSSLITALASFFTPKLKTFTVAFEGAYDESSLAELVAKRYKTDHTTLHLNPSKLKEEVKGILACYGRPFMDSSAIPSYYVSQEAKKHLTVILNGDGADELFGGYRRYVPMSHGWLKLARPLSLLLPLLPLPKEKKSLYNYLHRLLAMSRKRGLDFYLSATIDSFEDAYAFSPNPHTQTLDQEITQILEDSSLSSLSKMLYLDSQNLLLSDLLPKMDIATMAHSLEGRSPFLGKSLLEVAPRIKDEYKIFGKSTKFILRELAKKYLPHALLEQPKRGFEVPLRAWVEGELKELIFDSLSKNCLSRELIESRFVDALLDKPQDFAPEKRAKMLWSLFSLEVWHEHYQKACEEGHHHHHH	soluble
IPEYVDWRQKGAVTPVKNQGSCGSCWAFSAVVTIEGIIKIRTGNLNQYSEQELLDCDRRSYGCNGGYPWSALQLVAQYGIHYRNTYPYEGVQRYCRSREKGPYAAKTDGVRQVQPYNQGALLYSIANQPVSVVLQAAGKDFQLYRGGIFVGPCGNKVDHAVAAVGYGPNYILIKNSWGTGWGENGYIRIKRGTGNSYGVCGLYTSSFYPVKN	soluble
ESYAIFSLNAQFDALTINKARKLYRGKTRLLQGQRIELSDWPETSVERTEFYRYLLNKNLAQMNAHWASLSFSGKARPPKVIDQPSIEILLAWMREQPNRIGYAPVDSLPSDAHVLYVV	not soluble
MGSDKIHHHHHHMDLQYLDNFLALAHYRSFSAAADACYISQSSFSKRIMRLENNLGVTLFERSTRQVSLTEYGQIYLKYAQQIKTLSRQATDEINRRHAEDEGIVIGGIPSISEYGILDLISGFIKTTHIHCQVKSAPSEDLEPMLLNQTLDFAFIKEVHHTNLFYQLPYAEDHLVAVLPANHPLANLSEIKLQQLANEDFIFQPVNSRPYELCMMICKQNGFTPNVIYADRIIENILNFVKKGLGVSLLMEKLVPKDSELICLPIHPAVVADINLCYLKKEPLSQYGYAFLNYFSHQNNAR	not soluble
VRGLPRAKKLEKLGVFSACKANGTCKCNGWKNPKPPTAPRIDLQQPAANLSELCRSCEHPLADHVSHLENVSEDEINRLLGMVVDVENLFMSVHKEEDTDTKQVYFYLFKLLRKCILQMTRPVVEGSLGSPPFEKPNIEQGVLNFVQYKFSHLAPRERQTMFELSKMFLLCLNYWELETPAQFRQRSQAEDVATYKVNYTRWLCYCHVPQSCDSLPRYETTHVFGRS	soluble
MSLQINVNPQAALSQNAIVNNSSFSLVSKDVRSAQYVALVDSGRNNIEPIHPRQNVRITLENALAEQFGSQGFRLSVNSENTITLEIQELLVSVKHSIMENQMDGSVVLEITAETPRGKLVKSYTGTAKRTGVLSASNDEIETVLNDVINTVLKEIANDAELQNYMQERFNGEGHHHHHH	soluble
MRRIDMRSWIQNTKKLLPDLLPVMQTRMQILQYIRLMQPIGRRNLSASLGMTERVLRSEVQVLKEQNLVHVASSGMTLTEEGTALVLALEDFMKEISGLKVLEKQLKETLDLDEVFVVPGDSDESPWVKLEMGRACVTCIKDRLTANNIVAVAGGTTLAAAADMMQLDCKDLHMLFVPARGGIGEGVELEANTICAKMAQNTMSNYRLLYVPDHVSSEAYASIVTEPSVKEVLELIRSSNIVIHGIGDALTMARRRSTSEADWLKIQASEAVGEAFGYYFNEEGNVVHKVRTVGMQLEDLQNVSHVVAVAGGSSKAKAIQAVIKQGHTSILITDEGAAKQLTKGFTL	not soluble
MVFMQKRIIYGIDIARGSPRARELPRYALAILRDGEISHFSMLRRQKIFNMIQRDRPEIIAVDNIFELAADRNELLSLMERLPDGVKLVQVTGGLHPEPLVRIARKHGISLDPENPNDEAEACARLADLGVGHEVSLFEDITKIKVSRARSLGRGGWSQNRYRRKVHGAVLQRSREIENILKDLSREKGIRFEAVNVKGFGGYVRSEFTVYAKRGEVPVHSMASNDAQVSVRSVERDKIRYVPLKPRSQKRKFTIVGLDPGTTVGIAILSLDGDLLYLKSFRGIAPDEVVKIIAEYGKPAVIASDVTPMPGSVEKIRRSFNAVPASPGIEVSAEEKIALGKTFGYSNDHERDALTAALLTYRSYKNIFTRIEKKAPENSDLELIKLHVIRGESIESAIEKVRAASQAREKPAGARAAPEKPEEKAVDESFQRMRETVQRQGEQIQNLQEYVEELKQAMAAKDRKISKLESRLKGFKKEAYSEIRKSKEVQIRDSTIESLKKELSNKNKTVKELRRRSNKLRKIQKMEIRGEGTPVKVIAAFTKESIAETKEKYGLKAGDVVFLEKPSGGGAATAQILVEARVRAVIIPEDISHAAEETFFKGDVPVLRDIQLERADDFAMALEHHHHHH	not soluble
MNNLIKAINELKKEKNAIILGHYYQKGEIQDIADYVGDSLALAQLAAKTEADIIVMCGVHFMGETAKVLCPDKKVLVPDMEAGCSLADSCPADQFAQFVKEHPGHTVISYVNTTAAVKAVTDVVVTSTNARQIVESFPKDEKIIFGPDRNLGNYINSVTNRNMLLWDGACHVHEQFSVEKIVELKTQHPEALVLAHPECKSTVLKLADVVGSTAALLKYAVNHPENTYIVATESGILHEMQKKCPQTTFIPAPPNDSTCGCNECSFMRLNTLEKLYECLKNESPEITVDPEIAEKAVRPIQRMLEISAKLGL	not soluble
MSKGGWYLWHYLTLLKGKAYCDIYCKRITFNVKFRYVYRHFHWYSSSNNKFKQLEHHHHHH	not soluble
MDKKVYNTYVSILKNELVVALGCTEPIAIAYAGAKVREVLEAMPDRCEINCSGNIVKNVKGVTVPNSGGMKGIDTAATLGIVGGNVKRILAVLEDITPEQIETTQKLVKEGFCSCGLIEGVENLYIIITAYAGEESATVEIRDYHSNITKIVKNGKIIFSTDDEQSEQSSGPDKSLLNVKDILEFADCVDLSDISEVISRQIECNTAISQEGLNNPWGAQVGRTLLDTFGSDVAIRAKAAAAAGSDARMSGCPMPVVINSGSGNQGMTVSLPIIEYAKEYNISDEGLYRALVAGNLISLHQKKYIGSLSAYCGAVSAACGSGVGIAYMLGASYDEICGIITDTIATIGGMVCDGAKPSCAAKIASAVDCALTAFHLSKNKRVFQPGEGLVKETVEDTIQSIGRMGREGMKATDIEILNIMLEN	not soluble
MGHHHHHHSHMAAPEAEVLSSAAVPDLEWYEKSEETHASQIELLETSSTQEPLNASEAFCPRDCMVPVVFPGPVSQEGCCQFTCELLKHIMYQRQQLPLPYEQLKHFYRKPSPQAEEMLKKKPRATTEVSSRKCQQALAELESVLSHLEDFFARTLVPRVLILLGGNALSPKEFYELDLSLLAPYSVDQSLSTAACLRRLFRAIFMADAFSELQAPPLMGTVVMAQGHRNCGEDWFRPKLNYRVPSRGHKLTVTLSCGRPSIRTTAWEDYIWFQAPVTFKGFRE	not soluble
VTLRVVPESLAGASAAIEAVTARLAAAHAAAAPFIAAVIPPGSDSVSVCNAVEFSVHGSQHVAMAAQGVEELGRSGVGVAESGASYAARDALAAASYLSGGL	not soluble
MLTYGAPFNFPRWIDEHAHLLKPPVGNRQVWQDSDFIVTVVGGPNHRTDYHDDPLEEFFYQLRGNAYLNLWVDGRRERADLKEGDIFLLPPHVRHSPQRPEAGSACLVIERQRPAGMLDGFEWYCDACGHLVHRVEVQLKSIVTDLPPLFESFYASEDKRRCPHCGQVHPGRAA	soluble
MGSDKIHHHHHHMTRVEELLSQIKNLKTEKNAIILGHNYMEYSVQLVSDFTGDSYDLAVKAMKTNAKIILFAGVYFMAEQASALNPNKKVLSPDPNAGCTLSDSLDVKTLQEYKEKYPNAPVVLYINTSIYAKALADYIVTSSTAVKVVQKLNADTILFGPDANLANYVQQKVPNKKIIKVPPNGRCIVHANYTKQLVELARKKYPNALLMAHPEAPLEILESADFVGSTNQMIQFSKENKNEEFIVATEIGMINALKIKNPSKKFYPLVTTEACACARCPYMNMINLEKVKRSLEEEVYEVKVPEDIAERVKRAFENTMKLL	not soluble
MIVVSGSQSQNLAFKVAKLLNTKLTRVEYKRFPDNEIYVRIVDEINDDEAVIINTQKNQNDAIVETILLCDALRDEGVKKITLVAPYLAYARQDKKFNPGEAISIRALAKIYSNIVDKLITINPHETHIKDFFTIPFIYGDAVPKLAEYVKDKLNDPIVLAPDKGALEFAKTASKILNAEYDYLEKTRLSPTEIQIAPKTLDAKDRDVFIVDDIISTGGTMATAVKLLKEQGAKKIIAACVHPVLIGDALNKLYSAGVEEVVGTDTYLSEVSKVSVAEVIVDLL	soluble
MGSDKIHHHHHHVLNVNELVKTELHCHLDGSLSLGVIRQLAQMAKITIPAEDEALRKLVSVHGKVDSLMAYLKLFDFVRPLLQTATALELAAYDLVRQAASDKVIYIEVRFAPELSTDQDLTILEAVSAVLVGLNRGQEDFGVLAKLLVCGLKQTNTNQTKELFSAIADLAPKGLVGFDFAGNEADYPTEELRDIIQFTQSLGYPMTFHAGECGCVINVIQALELGIRRIGHGTALTRNPEAIQAFVNSGATLEMCLTSNLQTGAADSIEYFPYRELVEAGANITINTDNRTVSNTTLNREYQLFVEYFGTSKADFYRFNQNAIQASFASEGEKKVLLELLDQQY	not soluble
MGSDKIHHHHHHMSSSSVLAESCNGSQKKRVFVVGATGYIGKFVVRELVSRGYEVISFARPRSGVNASTTEDETRRQLQGSEVRFGDVSNLESLLRDGIRGEHFDAVVSCLASRNGGIKDSWDIDYQATRNSLDAGMKAGINHFVLLSAICVQKPMLEFQRAKLKFEKELRESGVTYSIVRPTAFFKSIAGQIEKVKNGKPYVMFGDGKLTACKPISEGDLARFITDCLEDPEKQNKILPIGGPGEPVTNLDQALMLFELLGRKPKLKKVPIQIFDVIIPLLTLISKFLPSFAEKAEFARIGKYYCSESMLVWDPVKKRYDADATPSYGTETLRDFYKRVLKEGLAGQELGAHAMF	not soluble
QLKDKFDGRPTKPPPNSYSLYCAELMANMKDVPSTERMVLCSQQWKLLSQKEKDAYHKKCDQKKKDYEVELLRFLESLPEEEQQRVLGEEKMLNI	soluble
MNALEPLFARLARSTFRSRFRLGIKERQYCWDKGAEVIDKHAADFIAQRLAPAHPANDGKQTPMRGHPVFIAQHATATCCRGCLAKWHQIPQGEPLSEAQQQYIVSVIHYWLVIQMNQR	not soluble
MVTKAKQIREKESKVAEFKYKNLTQEEQDKLDAATFRRLLAHLDANKDVQNIDLMILAGFCRNCFSKWYKAEAENLSLDLDIDDARERVYGMTYDEWKQNHQPAATPEQLAAFEARQKK	not soluble
